In patent publication CN109810195A (INST OF HEMATOLOGY BLOOD DISEASES HOSPITAL OF CHINESE …, dated 2019):

Target: T1, 人CD123蛋白 (白细胞介素3受体α链, IL3RA) (human, UniProt P26951 19-378)
T1 construct: whole, on cells
Assay: FACS, PE-labelled 13C3 titrated (200nM to 0.003nM) on 3T3 cells transfected with CD123; Kd fitted in GraphPad Prism 5

T1 sequence (P26951 19-378): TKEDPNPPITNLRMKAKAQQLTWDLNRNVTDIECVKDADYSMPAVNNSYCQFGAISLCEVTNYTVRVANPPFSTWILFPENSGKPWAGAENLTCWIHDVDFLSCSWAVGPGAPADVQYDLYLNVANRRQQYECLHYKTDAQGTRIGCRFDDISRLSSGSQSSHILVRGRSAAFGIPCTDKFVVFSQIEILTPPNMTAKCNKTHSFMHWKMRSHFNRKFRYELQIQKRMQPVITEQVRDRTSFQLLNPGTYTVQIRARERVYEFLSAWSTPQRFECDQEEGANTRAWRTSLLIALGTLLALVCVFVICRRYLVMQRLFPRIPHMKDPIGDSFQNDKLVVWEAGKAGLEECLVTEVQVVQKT

B1: 鼠抗人CD123单克隆抗体13C3 (antibody, V domains shown)
VH: QVQLQESGPGILQPSQTLTLTCSFSGFSLSTSGMGVGWIRQPSGKGLEWLAHIWWDDDKRYKPALKSRLTISKDTSSNQVFLKIASVDTADAATYYCARMGGGNYLFLYAMDFWGQGTSVTVSA
VL: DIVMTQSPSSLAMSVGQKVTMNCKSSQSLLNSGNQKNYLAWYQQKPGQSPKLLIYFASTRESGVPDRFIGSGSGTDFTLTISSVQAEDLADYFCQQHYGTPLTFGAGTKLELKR
notes: PE-labelled purified antibody in the Kd assay and on patient samples; also called 抗CD123单克隆抗体13C3; 杂交瘤细胞株13C3 (CGMCC No.16699) 产生的抗体
Kd: 3.67 nM
